Substrate in the data set: CC(=O)Oc1cccc2ccccc12
Briefly: purified protein. Conditions: 0.1 M sodium phosphate pH 7.0, 30 °C. It is filed as biochemical, Helicoverpa armigera.

Our source for the Km and kcat values is publication PMC4848949, “Bacterial Expression and Kinetic Analysis of Carboxylesterase 001D from Helicoverpa armigera” (International Journal of Molecular Sciences, 2016).

B1: Trx/6×His/S-tag/001D (pET32a-001D) (Helicoverpa armigera) (protein)
chain: DDEWREVRTAQGPVRGRKHPTADMYAFYNIPYATAPTGEDKFKAPLPGPVWLEPFDAVDERVVCPQAKLPMDIMKNVVEKENCLIANVFVPNTEEKNLSVVVYVHGGAFIIGSGNMIQATHLMKTNDFIMVSFNYRLGIHGFLCLGTEDAPGNAGMKDQVALLRWVQKNIASFGGNPDDVTIVGSSAGSASVDLLMLSKSAEGLFHRVIPESGGNLAAFTVQRDPVEIAKTHAKKLNFNNVDDIYALEEFYKTVPMELLTSDHFFDRTDATFVFGPCVERDTGDGAFLTESPLSILKSGNYRKLPLLYGFAEMEGLMRINVFELWKHKMNEKFSDFLPADLKFDSEEEREEVANKIKRFYFGDKPVGDENVLKYVDYFSDVYFAYSMLWAVKLHAEAGNNQVYLYEYSFVDEDTPLVPHTNVRGADHCTQTMAVYDMKNITHEDESLATPELQKMKKVVREIWHNFIKTGVPVPEGSWLPAWPAAGADRAPHMSLGERLELRGALLPERTRFWDDIYQRYYRDAVPPPTPPPRPRSEL
notes: mature enzyme, signal peptide (residues 1-16) removed; N-terminal Trx/6×His/S-tag kept; E. coli BL21(DE3), Ni-NTA; about 79 kDa; full precursor 554 residues
For B1, the Km is listed as 7.61(0.63) µM and the kcat is given as 2.29(0.08) s^-1.

B2: 6×His/001D (pE1-001D) (Helicoverpa armigera) (protein)
chain: B1 chain
notes: mature enzyme, signal peptide (residues 1-16) removed; N-terminal 6×His tag kept; E. coli BL21(DE3), Ni-NTA; about 63 kDa
With B2, the Km is given as 19.72(6.69) µM and the kcat is given as 0.35(0.05) s^-1.

B3: 6×His/S-tag/001D (pET30a-001D) (Helicoverpa armigera) (protein)
chain: B1 chain
notes: mature enzyme, signal peptide (residues 1-16) removed; N-terminal 6×His/S-tag kept; E. coli BL21(DE3), Ni-NTA; about 67 kDa
As to B3, the Km is reported as 12.51(2.14) µM and the kcat is 0.60(0.06) s^-1.
